Measurements as given in patent publication US20190160181A1.

Target: Human cyclized NaPi2b peptide (human)
Test: ELISA on plate-coated human cyclized NaPi2b peptide, one site-specific binding fit

Kd: 0.536 nM
B1: XMT-1535 (antibody, V domains shown)
VH: QVQLVQSGAEVVKPGASVKMSCKASGYTFTGYNIHWVKQAPGQGLEWIGAIYPGNGDTSYKQKFRGRATLTADTSTSTVYMELSSLRSEDSAVYYCARGETARATFAYWGQGTLVTVSS
VL: DIQMTQSPSSLSASVGDRVTITCSASQDIGNFLNWYQQKPGKTVKVLIYYTSSLYSGVPSRFSGSGSGTDYTLTISSLQPEDFATYYCQQYSKLPLTFGQGTKLELKR
